# The supplement of paper PMC9170038
# Test system: MS2 coat protein
# Test: apparent KD of MS2 coat protein; designed switch direction (-1 OFF switch, 1 ON switch): -1; higher = weaker reporter binding
# Outline: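 Designed RNA switches with common flanks were made on Illumina chips by stalled E. coli RNA polymerase. Titration with SNAP-549-labelled MS2 coat protein doubled from 0.7 or 1.5 nM up to 3 µM. Apparent KD is each design's median over clusters after curve-fitting normalised fluorescence.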
# [1] = input ligand: microRNA oligo, concentration not stated
# [2] = Eterna round: R95, input ligand: FMN 200 uM
# [3] = Eterna round: R95, input ligand: microRNA oligo, concentration not stated
# [4] = Eterna round: R95, input ligand: none
Sequence,apparent KD of MS2 coat protein (input ligand: FMN 200 uM) [nM],apparent KD of MS2 coat protein (input ligand: none) [nM],apparent KD of MS2 coat protein [1] [nM],apparent KD of MS2 coat protein [2] [nM],apparent KD of MS2 coat protein [3] [nM],apparent KD of MS2 coat protein [4] [nM]
"UCCUCACCUUAGGAUAUCUUGACGGGACUCUCAGGAGAAGGAAGGACAUGAGGAUCACCCAUGUUCAAAACAAC [EX6 B.18] (Eterna round: R97, puzzle: Exclusion 6)",50.2,23.2,–,–,–,–
"UAUAUGUUAGGAUAUCUCGUCAUGGAGGAAACUCCAUGACGAGAGAAGGAACAUGAGGAUCACCCAUGUUUAUU [Mod of Fisker 25 - Jieux - Exclusion 4] (Eterna round: R97, puzzle: Exclusion 4)",27.4,19,–,–,–,–
"ACAUGAGGAUCACCCAUGUGACAAGAAUGGCUGAUACAGAGACAGGAUAUAGGUGCAUAUCUAACCUAGAAGGGUCAUGACUGG [Deportation 73 - Jieux - Exclusion NG 3] (Eterna round: R96, puzzle: Exclusion NG 3)",–,–,26.6,–,–,–
GGUUGGCGAGGAUAUACAUGAGGAUCACCCAUGUGAGAGAAAAAAGUGAGGAAGAAAAGUAGAAGGCGCUGACU [salish99_ex3_r3_047] (puzzle: Exclusion 3),–,–,–,221,53.2,50.1
CCUGCACAUGAGGAUCACCCAUGUUAGGAUAUCUCGCCGUCGGCUUGCCGACGGUAUUAGAGAAGGGACAAGGG [JL Tixe mod 3] (puzzle: Exclusion 1),–,–,–,–,39.5,–
"CAAGAUUACUGAGGAUAUCCUAGUUUAUUUCAGGGAGAAGGCGGACUCAACAUGAGGAUCACCCAUGUAAGACGGGUACUAGAG [Ex NG1 #16] (Eterna round: R96, puzzle: Exclusion NG 1)",94.7,78.4,71.1,–,–,–
"CGAUGUCUUCGGACAUCGAACAUGAGGAUCACCCAUGUAAUGAGCAGAUCUUCAUGCAAGCUUUUUGCUCGUCUUAU [Sensor v3 - turn-off variant 1 - 44] (puzzle: Sensor v3, turn-off variant 1)",–,–,–,215,11.6,213
"AAAUAAUAGAUAAAAUAAUACAUGAGGAUCACCCAUGUGGGAUGCUGAGGGUGAUACAGGCUUUUUGCUCGUCUUAU (puzzle: Sensor v3, turn-off variant 1)",–,–,–,78.7,16.3,99.9
CUUCGACAUGAGGAUCACCCAUGUCAGGAUAUUGUUUAUCUGGUUUUUUACAGAUAUGCAAGAAGGGAUGUGUU [LRO-Excl1-03] (puzzle: Exclusion 1),–,–,–,–,26.5,–
CCGAAAAUGCAGGAUAUCGUAUCGGAAACGAUACGAGAAGGGCAAACAUGAGGAUCACCCAUGUUCCUUAACGG [Mat - Exclusion 6 - Eli Mod - D76] (puzzle: Exclusion 6),–,–,–,21.3,19.4,18.9
"UUUACAAGCUUUUGAUCCCACAUGAGGAUCACCCAUGUUGCUGCCGGUGACGGUAGCAUAACAAAUGCUCGUCUUAU [JL TOV1 3.55] (Eterna round: R97, puzzle: Sensor, turn-off variant 1)",846,1160,–,–,–,–
UCGGCGCGAGGAUAUGCGGUUGCUCCCUAGGGUCGGAGCGUACAUGAGGAUCACCCAUGUAGAAGGCGCGCCGC [Apr-15 SS2-34] (puzzle: Exclusion 2),–,–,–,–,12.4,–
"UGGUCACAUGAGGAUCACCCAUGUCAGGAUAUCGUCACUGGAGCUUCGGCUCCAGUGACGAGAAGGGACAUAAU [E1/6-A1] (Eterna round: R97, puzzle: Exclusion 1)",47,394,–,–,–,–
"GCAUGUCUUAAGGAUAUGCUUAGGCGUGAGCCGGCAGAAGGUAAGACAUGAGGAUCACCCAUGUUUUCCUAAAA [jl-ex6-4.31 ViennaUCT mod] (Eterna round: R97, puzzle: Exclusion 6)",171,24.4,–,–,–,–
"CUGAGCAGACGGAGAUCCAACAUGAGGAUCACCCAUGUCUCAAAAGCUUUUUGCUCGUCUUAUCCUCCUCUGCUCAC [Geesbeleri] (puzzle: Sensor v3, turn-off variant 1)",–,–,–,11.2,21.8,12.5
GAGAGGUCAGGAUAUACGGAGAGAGGGAGUAGGUGAGGGUAACAUGAGGAUCACCCAUGUAGAAGGGACUAAGG [JR_Exclu2_Sub076] (puzzle: Exclusion 2),–,–,–,26.4,27.4,39.9
UGAUGUUGAUAGGAUAUACAGGUAGGAGUAGGAGUAGAAGGAUCUACAUGAGGAUCACCCAUGUAGGAGUGAGA [JR_E6_Sub001] (puzzle: Exclusion 6),–,–,–,21.7,12.5,16.4

Sequence,apparent KD of MS2 coat protein (input ligand: FMN 200 uM) [nM],apparent KD of MS2 coat protein (input ligand: none) [nM],apparent KD of MS2 coat protein [1] [nM],apparent KD of MS2 coat protein [2] [nM],apparent KD of MS2 coat protein [3] [nM],apparent KD of MS2 coat protein [4] [nM]
"GGUCCCAGGCAGGAUAUGCAAGCCACACAUGGCGCAGAAGGGCUCACAUGAGGAUCACCCAUGUAUUUCGUUUU [Eternabot (L1) Solution 19] (Eterna round: R97, puzzle: Exclusion 6)",86,42.3,–,–,–,–
"UUUAAUUUUUUUUUUUUACAAGCUUUUUGCUCGUCUUAUACAUGAGGAUCACCCAUGUAAAUGGGAAAUGAAUUAUC [JMF 95] (puzzle: Sensor v3, turn-off variant 2)",–,–,–,322,447,188
"AACCUGAGGCUUUGCUUUAGGUGUACAUGAGGAUCACCCAUGUAGGAUAUGGUAGGCUUUGCUUACCAGAAGGACAUUGGCGUA [Mat - Exclusion NG 3 - Mod of JL - D39] (Eterna round: R96, puzzle: Exclusion NG 3)",144,77.2,66.4,–,–,–
"GCUUGUGGGCAAGGAUAUCCUGCGCUGUUCUGGUUCGUGUCUGUCACAUGAGGAUCACCCAUGUGGGAGAAGGUGCCUUUGGCG [Design 65] (Eterna round: R96, puzzle: Exclusion NG 2)",12.5,13.2,10.5,–,–,–
"AAGUACCGUCACGAUAGUGAUGGUACAACAAGCAUGUAAACAUGAGGAUCACCCAUGUCCUCGAUUGCUCGUCUUAU [Sensor 3 - 67] (puzzle: Sensor v3, turn-off variant 2)",–,–,–,527,601,537
CUCUUGGCAGGAUAUGCAAUUUUAGACAUGAGGAUCACCCAUGUGAUCAUUCCAUAUUAUGCAGAAGGGCCUAAAC [JR_E5_Sub049] (puzzle: Exclusion 5),–,–,–,–,54.3,–
ACUAGAUGAGGAUAUGCACAUUUUAGUGUUCCUCUAGAUUAACAUGAGGAUCACCCAUGUAGAAGGCGUCAAUU [Exclusion 2 - 12] (puzzle: Exclusion 2),–,–,–,–,53.1,–
AAAAGCCAUGUUAGGAUAUGCAUGGCAGCUGCGAUGCAGAAGGAACAUGAGGAUCACCCAUGUGAACUUAAAUA [Anmaleus] (puzzle: Brourd's mod of Exclusion 4),–,–,–,21.2,16.2,18.3
"CAUGAUUGGCGAGGAUAUUGACCUAGUUGGCGACGAGAAGGCGCCUGUCACAUGAGGAUCACCCAUGUGAAUCUGGUGAAAGAG [Ex NG1 #90] (Eterna round: R96, puzzle: Exclusion NG 1)",23.9,22.8,16.1,–,–,–
"CGUCUACCAAAACCGAACAACAUGAGGAUCACCCAUGUCACUCCGCCUUAAACCUACGGAGUAAAGUGGGCGCAAAA [Vesocegeer] (Eterna round: R96, puzzle: Sensor v2, turn-off variant)",32.2,33.2,28.5,–,–,–
"UUUUUAAAUGAAGGAUAUACUUAACAUGAGGAUCACCCAUGUGGUGUUGUGAGUGAGUGAGUUUAGUAGAAGGUCAAGUAUUUU [JMF's solution 44] (Eterna round: R96, puzzle: Exclusion NG 2)",814,392,339,–,–,–
"AAGUACCGUCACGAAAGUGAUGGUACAACAAGCAAAUGUACAUGAGGAUCACCCAUGUCCUCGAUUGCUCGUCUUAU [Sensor 3 - 61] (puzzle: Sensor v3, turn-off variant 2)",–,–,–,77.2,114,93.6
"AGCUGUGGCCGAGGAUAUCAAGACCGAUGGAAAACCAUCGGAACUCAACAUGAGGAUCACCCAUGUGAGAAGGCGGUCUCAGCA [Eli eng2 - 027] (Eterna round: R96, puzzle: Exclusion NG 2)",10.9,10.9,7.82,–,–,–
"UGCCGUAGAGGAUAUACAUUGAAUAAGAUUCAUGUAAAACUACAUGAGGAUCACCCAUGUAGAAGGCUAUGGCU [JL-ex2-4.37 Eli mod] (Eterna round: R97, puzzle: Exclusion 2)",38.6,14.7,–,–,–,–
"GUAUAACUACACGGGCUCAACAUGAGGAUCACCCAUGUAAUAUACGCAAGCUUUUUGCUUGUCUUAUCUGUCCGUGA [Aanrius] (puzzle: Sensor v3, turn-off variant 1)",–,–,–,12.3,9.56,11.4
"AAAUAGCUUGAGGAUAUUGGAUUGGAUUUAGUGCGAGAAGGCAAGACAUGAGGAUCACCCAUGUUGUGUUGGGA [EX6 #12] (Eterna round: R97, puzzle: Exclusion 6)",72.7,55.1,–,–,–,–
"CUGAGGUAGCGGUCCUAUGACAUGAGGAUCACCCAUGUACCUUGCUUCGAGCUUUUUGCUCGUCUUAUGAUUCUCGG [JL Atriat mod 5] (puzzle: Sensor v3, turn-off variant 1)",–,–,–,486,456,576
